PMC10371147

What was measured:
[1] = target: mTmc1 tagged with mRuby3 (mTmc1-mRuby3) (mouse) (UniProt Q8R4P5)
[2] = target: mTmc1 tagged with mRuby3 (mTmc1-mRuby3) (mouse) (UniProt Q8R4P5); experiment: FRET or BRET; acceptor photobleaching in living N2A cells co-transfected with mPz1-mClover3 (donor) and mTmc1-mRuby3 (acceptor), Tyrode's solution pH 7.4, region of the surface membrane

Sequence of mTmc1 tagged with mRuby3 (mTmc1-mRuby3) (mouse) (Q8R4P5 whole entry): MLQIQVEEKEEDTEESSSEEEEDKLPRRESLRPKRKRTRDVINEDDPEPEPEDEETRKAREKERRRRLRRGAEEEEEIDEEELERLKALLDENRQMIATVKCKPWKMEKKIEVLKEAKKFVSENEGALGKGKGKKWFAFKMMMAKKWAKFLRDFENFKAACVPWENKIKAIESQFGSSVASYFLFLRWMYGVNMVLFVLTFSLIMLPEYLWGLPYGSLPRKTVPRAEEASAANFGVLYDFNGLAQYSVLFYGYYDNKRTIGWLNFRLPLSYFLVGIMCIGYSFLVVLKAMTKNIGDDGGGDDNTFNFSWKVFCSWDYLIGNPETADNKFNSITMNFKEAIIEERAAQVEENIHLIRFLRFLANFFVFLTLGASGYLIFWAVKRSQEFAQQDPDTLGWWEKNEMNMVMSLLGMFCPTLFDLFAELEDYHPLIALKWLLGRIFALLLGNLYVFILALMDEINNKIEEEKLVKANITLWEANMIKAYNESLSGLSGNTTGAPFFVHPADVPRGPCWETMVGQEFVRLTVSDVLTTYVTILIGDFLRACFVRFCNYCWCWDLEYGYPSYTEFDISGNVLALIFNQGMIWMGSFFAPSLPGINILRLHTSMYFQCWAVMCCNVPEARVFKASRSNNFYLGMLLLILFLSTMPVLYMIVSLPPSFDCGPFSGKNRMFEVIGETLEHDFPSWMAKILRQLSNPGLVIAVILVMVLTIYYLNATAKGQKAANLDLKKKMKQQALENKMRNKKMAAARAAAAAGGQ

block by dihydrostreptomycin (DHS) of the mechanically activated current in N2A cells co-transfected with Pz1 and Tmc1, against Pz1 alone [1]: 1000 fold | FRET efficiency (E) [2]: 0.1
Substance: mouse Pz1 tagged with mClover3 (mPz1-mClover3), E2JF22 1-2547
